Data as given in the supplement of paper PMC11246515.
± gives the standard deviation of the averaged measurements.

Experiment: total protein half-life in vivo (active degradation + dilution); higher = more stable protein
[1] = E. coli NCM3722 delta-clpP delta-lon delta-hslV, growth: N-lim chemostat, doubling time 6 h
[2] = E. coli NCM3722 delta-hslV, growth: N-lim chemostat, doubling time 6 h
[3] = E. coli NCM3722 delta-smpB, growth: N-lim chemostat, doubling time 6 h
[4] = wild type E. coli NCM3722, growth: C-lim chemostat, doubling time 6 h
[5] = wild type E. coli NCM3722, growth: C-lim chemostat, doubling time 12 h
[6] = wild type E. coli NCM3722, growth: N-lim chemostat, doubling time 6 h
[7] = wild type E. coli NCM3722, growth: P-lim chemostat, doubling time 6 h
[8] = E. coli NCM3722 delta-lon, growth: N-lim chemostat, doubling time 6 h
[9] = wild type E. coli NCM3722, growth: C-lim chemostat, doubling time 3 h
[10] = E. coli NCM3722 delta-clpP, growth: N-lim chemostat, doubling time 6 h
[11] = wild type E. coli NCM3722, growth: N-lim chemostat, doubling time 12 h
[12] = wild type E. coli NCM3722, growth: P-lim chemostat, doubling time 12 h

Row | Sequence | total protein half-life in vivo [1] [h] | total protein half-life in vivo [2] [h] | total protein half-life in vivo [3] [h] | total protein half-life in vivo [4] [h] | total protein half-life in vivo [5] [h] | total protein half-life in vivo [6] [h] | total protein half-life in vivo [7] [h] | total protein half-life in vivo [8] [h] | total protein half-life in vivo [9] [h] | total protein half-life in vivo [10] [h] | total protein half-life in vivo [11] [h] | total protein half-life in vivo [12] [h]
1 | MAYQSQDIIRRSATNGLTPAPQARDFQEEVAKLIDVTTCIGCKACQVACSEWNDIRDTVGNNIGVYDNPNDLSAKSWTVMRFSEVEQNDKLEWLIRKDGCMHCSDPGCLKACPAEGAIIQYANGIVDFQSEQCIGCGYCIAGCPFDIPRLNPEDNRVYKCTLCVDRVVVGQEPACVKTCPTGAIHFGTKESMKTLASERVAELKTRGYDNAGLYDPAGVGGTHVMYVLHHADKPNLYHGLPENPEISETVKFWKGIWKPLAAVGFAATFAASIFHYVGVGPNRADEEENNLHEEKDEERK [P0AAJ5] | 4.44 ± 0.47 | 3.37 | 3.15 | 6.15 | 7.88 | 5.98 ± 0.62 | 5.29 |  |  |  |  | 
2 | MAYRDQPLGELALSIPRASALFRKYDMDYCCGGKQTLARAAARKELDVEVIEAELAKLAEQPIEKDWRSAPLAEIIDHIIVRYHDRHREQLPELILQATKVERVHADKPSVPKGLTKYLTMLHEELSSHMMKEEQILFPMIKQGMGSQAMGPISVMESEHDEAGELLEVIKHTTNNVTPPPEACTTWKAMYNGINELIDDLMDHISLENNVLFPRALAGE |  |  | 2.54 |  |  |  |  | > 8 | 2.72 |  |  | 
3 | MAYSIGIDSGSTATKGILLADGVITRRFLVPTPFRPATAITEAWETLREGLETTPFLTLTGYGRQLVDFADKQVTEISCHGLGARFLAPATRAVIDIGGQDSKVIQLDDDGNLCDFLMNDKCAAGTGRFLEVISRTLGTSVEQLDSITENVTPHAITSMCTVFAESEAISLRSAGVAPEAILAGVINAMARRSANFIARLSCEAPILFTGGVSHCQKFARMLESHLRMPVNTHPDAQFAGAIGAAVIGQRVRTRR | 4.12 |  |  | 3.66 ± 0.33 | 6.35 ± 0.44 |  |  |  | 2.01 ± 0.18 | 4.27 |  | 
4 | MAYTTFSQTKNDQLKEPMFFGQPVNVARYDQQKYDIFEKLIEKQLSFFWRPEEVDVSRDRIDYQALPEHEKHIFISNLKYQTLLDSIQGRSPNVALLPLISIPELETWVETWAFSETIHSRSYTHIIRNIVNDPSVVFDDIVTNEQIQKRAEGISSYYDELIEMTSYWHLLGEGTHTVNGKTVTVSLRELKKKLYLCLMSVNALEAIRFYVSFACSFAFAERELMEGNAKIIRLIARDEALHLTGTQHMLNLLRSGADDPEMAEIAEECKQECYDLFVQAAQQEKDWADYLFRDGSMIGLNKDILCQYVEYITNIRMQAVGLDLPFQTRSNPIPWINTWLVSDNVQVAPQEVEVSSYLVGQIDSEVDTDDLSNFQL | 4.55 ± 0.57 | 3.45 ± 0.054 | 3.62 ± 0.26 | 5.7 ± 0.76 | 9.25 ± 0.099 | 3.415 ± 0.022 | 5.24 ± 0.12 | 4.25 ± 0.52 | 3.04 ± 0.28 | 4.92 ± 1.1 | 5.12 ± 0.56 | 9.5 ± 0.26
5 | MCEGYVEKPLYLLIAEWMMAENRWVIAREISIHFDIEHSKAVNTLTYILSEVTEISCEVKMIPNKLEGRGCQCQRLVKVVDIDEQIYARLRNNSREKLVGVRKTPRIPAVPLTELNREQKWQMMLSKSMRR [P0AE58] | 3.96 ± 0.18 |  |  |  |  |  |  |  |  |  |  | 
6 | MCIGVPGQVLAVGEDIHQLAQVEVCGIKRDVNIALICEGNPADLLGQWVLVHVGFAMSIIDEDEAKATLDALRQMDYDITSA [P0AAM7] | 4.75 ± 0.12 |  |  | 2.77 |  |  |  |  |  |  |  | 2.51
7 | MDAKQTRQGVLLALAAYFIWGIAPAYFKLIYYVPADEILTHRVIWSFFFMVVLMSICRQWSYLKTLIQTPQKIFMLAVSAVLIGGNWLLFIWAVNNHHMLEASLGYFINPLVNIVLGMIFLGERFRRMQWLAVILAICGVLVQLWTFGSLPIIALGLAFSFAFYGLVRKKIAVEAQTGMLIETMWLLPVAAIYLFAIADSSTSHMGQNPMSLNLLLIAAGIVTTVPLLCFTAAATRLRLSTLGFFQYIGPTLMFLLAVTFYGEKPGADKMVTFAFIWVALAIFVMDAIYTQRRTSK |  |  |  |  |  |  |  |  |  |  | 7.87 | 
8 | MDDCGAILHNIETKWLYDFLTLEKCRNFSQAAVSRNVSQPAFSRRIRALEQAIGVELFNRQVTPLQLSEQGKIFHSQIRHLLQQLESNLAELRGGSDYAQRKIKIAAAHSLSLGLLPSIISQMPPLFTWAIEAIDVDEAVDKLREGQSDCIFSFHDEDLLEAPFDHIRLFESQLFPVCASDEHGEALFNLAQPHFPLLNYSRNSYMGRLINRTLTRHSELSFSTFFVSSMSELLKQVALDGCGIAWLPEYAIQQEIRSGKLVVLNRDELVIPIQAYAYRMNTRMNPVAERFWRELRELEIVLS | 5 ± 0.22 | 4.98 |  | 5.18 |  | 5.51 |  | 4.5 | 2.52 |  |  | 10.4 ± 0.27
9 | MDDIVNSVPSWMFTAIIAVCILFIIGIIFARLYRRASAEQAFVRTGLGGQKVVMSGGAIVMPIFHEIIPINMNTLKLEVSRSTIDSLITKDRMRVDVVVAFFVRVKPSVEGIATAAQTLGQRTLSPEDLRMLVEDKFVDALRATAAQMTMHELQDTRENFVQGVQNTVAEDLSKNGLELESVSLTNFNQTSKEHFNPNNAFDAEGLTKLTQETERRRRERNEVEQDVEVAVREKNRDALSRKLEIEQQEAFMTLEQEQQVKTRTAEQNARIAAFEAERRREAEQTRILAERQIQETEIDREQAVRSRKVEAEREVRIKEIEQQQVTEIANQTKSIAIAAKSEQQSQAEARANLALAEAVSAQQNVETTRQTAEADRAKQVALIAAAQDAETKAVELTVRAKAEKEAAEMQAAAIVELAEATRKKGLAEAEAQRALNDAINVLSDEQTSLKFKLALLQALPAVIEKSVEPMKSIDGIKIIQVDGLNRGGAAGDANTGNVGGGNLAEQALSAALSYRTQAPLIDSLLNEIGVSGGSLAALTSPLTSTTPVEEKAE |  |  | 3.89 |  | 9.53 | 3.81 | 6.67 |  |  | 4.22 |  | 12.3
10 | MDDQLKQSALDFHEFPVPGKIQVSPTKPLATQRDLALAYSPGVAAPCLEIEKDPLKAYKYTARGNLVAVISNGTAVLGLGNIGALAGKPVMEGKGVLFKKFAGIDVFDIEVDELDPDKFIEVVAALEPTFGGINLEDIKAPECFYIEQKLRERMNIPVFHDDQHGTAIISTAAILNGLRVVEKNISDVRMVVSGAGAAAIACMNLLVALGLQKHNIVVCDSKGVIYQGREPNMAETKAAYAVVDDGKRTLDDVIEGADIFLGCSGPKVLTQEMVKKMARAPMILALANPEPEILPPLAKEVRPDAIICTGRSDYPNQVNNVLCFPFIFRGALDVGATAINEEMKLAAVRAIAELAHAEQSEVVASAYGDQDLSFGPEYIIPKPFDPRLIVKIAPAVAKAAMESGVATRPIADFDVYIDKLTEFVYKTNLFMKPIFSQARKAPKRVVLPEGEEARVLHATQELVTLGLAKPILIGRPNVIEMRIQKLGLQIKAGVDFEIVNNESDPRFKEYWTEYFQIMKRRGVTQEQAQRALISNPTVIGAIMVQRGEADAMICGTVGDYHEHFSVVKNVFGYRDGVHTAGAMNALLLPSGNTFIADTYVNDEPDAEELAEITLMAAETVRRFGIEPRVALLSHSNFGSSDCPSSSKMRQALELVRERAPELMIDGEMHGDAALVEAIRNDRMPDSSLKGSANILVMPNMEAARISYNLLRVSSSEGVTVGPVLMGVAKPVHVLTPIASVRRIVNMVALAVVEAQTQPL | 5.85 ± 0.24 | 5.84 ± 0.13 | 5.6 ± 0.15 | 5.948 ± 0.055 | 10.7 ± 0.31 | 5.97 ± 0.3 | 6.35 ± 0.11 | 7.1 ± 0.61 | 3.13 ± 0.15 | 6.35 ± 2.2 | 10.983 ± 0.005 | 12.2 ± 1.3
11 | MDEFKPEDELKPDPSDRRTGRSRQSSERSERTERGEPQINFDDIELDDTDDRRPTRAQKERNEEPEIEEEIDESEDETVDEERVERRPRKRKKAASKPASRQYMMMGVGILVLLLLIIGIGSALKAPSTTSSDQTASGEKSIDLAGNATDQANGVQPAPGTTSAENTQQDVSLPPISSTPTQGQTPVATDGQQRVEVQGDLNNALTQPQNQQQLNNVAVNSTLPTEPATVAPVRNGNASRDTAKTQTAERPSTTRPARQQAVIEPKKPQATVKTEPKPVAQTPKRTEPAAPVASTKAPAATSTPAPKETATTAPVQTASPAQTTATPAAGAKTAGNVGSLKSAPSSHYTLQLSSSSNYDNLNGWAKKENLKNYVVYETTRNGQPWYVLVSGVYASKEEAKKAVSTLPADVQAKNPWAKPLRQVQADLK | 5.8 ± 0.35 | 5.595 ± 0.021 | 5.54 ± 0.12 | 5.51 ± 0.26 | 9.07 ± 0.37 | 5.58 ± 0.49 | 5.099 ± 0.038 | 5.74 ± 0.32 | 2.84 ± 0.091 | 6.01 ± 0.27 | 11.9 ± 2 | 10.285 ± 0.01
